According to patent US20200308223A1 (IMMUNWORK, published 2020):

Target: T1, human CD19 (human, UniProt P15391 20-556)
T1 construct: whole, on cells; also called CD19 on Raji cells; CD19 on Ramos cells
T1 sequence (looked up): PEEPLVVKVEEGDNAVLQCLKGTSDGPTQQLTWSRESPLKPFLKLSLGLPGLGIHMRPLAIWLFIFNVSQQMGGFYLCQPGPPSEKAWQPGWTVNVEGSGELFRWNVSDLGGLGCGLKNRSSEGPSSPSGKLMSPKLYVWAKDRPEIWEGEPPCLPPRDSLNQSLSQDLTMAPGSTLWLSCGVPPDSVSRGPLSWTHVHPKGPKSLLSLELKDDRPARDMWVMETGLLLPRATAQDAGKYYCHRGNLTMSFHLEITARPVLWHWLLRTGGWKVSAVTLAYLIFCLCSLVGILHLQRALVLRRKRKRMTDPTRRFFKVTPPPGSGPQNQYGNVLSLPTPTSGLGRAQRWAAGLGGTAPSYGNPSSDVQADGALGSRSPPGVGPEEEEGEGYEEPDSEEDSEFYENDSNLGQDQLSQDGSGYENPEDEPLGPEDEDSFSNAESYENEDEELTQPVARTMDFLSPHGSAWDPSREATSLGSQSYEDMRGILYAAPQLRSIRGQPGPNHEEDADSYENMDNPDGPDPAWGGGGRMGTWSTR
Assay: flow cytometry (FACS) on CD19-expressing Raji cells, 0.001 µg/ml construct, FITC goat anti-human IgG.Fc detection
Experimental: The assay was performed by incubating 1×10⁶CD19-expressing Raji cells with 0.001 μg/ml of each construct in PBS, 1% BSA on ice for 30 minutes, using anti-CD19 antibody (RB4v1.2), (scFv α CD19)-Fc-MBM-1 X 2 DOTA bundles and (scFv α CD19)-Fc-MBM-3 X 2 DOTA bundles as positive controls. The anti-HER2 antibody (trastuzumab) was used as a negative control. The staining of cells was analyzed by FACS (FACSCanto II; BD Biosciences) using FITC-conjugated goat anti-human IgG.Fc (diluted 1:200 in PBS/BSA) (Caltag, Buckingham, UK) at 4° C. for 20 minutes in the dark.

B1: stabilized (scFv α CD19)-Fc-MBM-3 X 2 DOTA bundles (Fc fusion)
chain: EIVLTQSPAIMSASPGERVTMTCSASSGVNYMHWYQQKPGTSPRRWIYDTSKLASGVPARFSGSGSGTDYSLTISSMEPEDAATYYCHQRGSYTFGGGTKLEIKRGSTSGSGKPGSGEGSTKGQVQLVQPGAEVVKPGASVKLSCKTSGYTFTSNWMHWVKQAPGQGLEWIGEIDPSDSYTNYNQNFQGKAKLTVDKSTSTAYMEVSSLRSDDTAVYYCARGSNPYYYAMDYWGQGTSVTVSSGGGASDKTHTCPPCPAPELLGGPSVFLFPPKPKDTLMISRTPEVTCVVVDVSHEDPEVKFNWYVDGVEVHNAKTKPREEQYNSTYRVVSVLTVLHQDWLNGKDYKCKVSNKALPAPIEKTISKAKGQPREPQVYTLPPSRDELTRNQVSLTCLVKGFYPSDIAVEWESNGQPENNYKTTPPVLDSDGSFFLYSKLTVDKSRWQQGNVFSCSVMHEALHNHYTQKSLSLSPGGGGGCGGHA
modifications: cysteine residue of the C-terminal metal binding motif GCGGHA conjugated with one Mal-Peptide 2-DOTA bundle (three DOTA on a maleimido-ethyl peptide core)
notes: also called recombinant 2-chain (scFv α CD19)-Fc-MBM-3 X 2 DOTA bundles; 2-chain (VL-VH scFv α CD19)-Fc-MBM-3 conjugated with two DOTA bundles
binding result: binds
